From US20090162363A1 (published 2009)

Experiments:
[1] = target: T1, recombinant human PEDF protein (pigment epithelium derived factor) (human, UniProt P36955 20-418); assay: SPR (BIAcore), PEDF immobilized on CM5 chip; PBS with 0.1% NP-40
T1 chain: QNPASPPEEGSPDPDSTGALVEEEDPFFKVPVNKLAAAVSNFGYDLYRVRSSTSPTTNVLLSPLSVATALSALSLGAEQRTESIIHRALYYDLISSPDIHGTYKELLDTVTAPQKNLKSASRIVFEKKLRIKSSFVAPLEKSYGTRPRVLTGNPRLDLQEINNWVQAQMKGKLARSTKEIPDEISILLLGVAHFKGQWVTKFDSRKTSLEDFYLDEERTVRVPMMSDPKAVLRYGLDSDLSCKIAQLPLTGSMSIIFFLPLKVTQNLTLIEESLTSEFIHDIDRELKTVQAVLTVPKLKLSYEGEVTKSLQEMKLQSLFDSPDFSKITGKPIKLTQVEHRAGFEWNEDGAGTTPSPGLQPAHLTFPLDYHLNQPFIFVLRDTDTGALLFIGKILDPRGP

[2] = target: T1, recombinant human PEDF protein (pigment …); assay: as above

Ka [1]: 4.32e+08 M⁻¹
Kd [2]: 2.31 nM
B1: R1N (recombinant human PEDF-R1 polypeptide with N-terminal 6xHis tag, from pEXP1-R1N) (receptor)
chain: MFPREKTWNISFAGCGFLGVYYVGVASCLREHAPFLVANATHIYGASAGALTATALVTGVCLGEAGAKFIEVSKEARKRFLGPLHPSFNLVKIIRSFLLKVLPADSHEHASGRLGISLTRVSDGENVIISHFNSKDELIQANVCSGFIPVYCGLIPPSLQGVRYVDGGISDNLPLYELKNTITVSPFSGESDICPQDSSTNIHELRVTNTSIQFNLRNLYRLSKALFPPEPLVLREMCKQGYRDGLRFLQRNGLLNRPNPLLALPPARPHGPEDKDQAVESAQAEDYSQLPGEDHILEHLPARLNEALLEACVEPTDLLTTLSNMLPVRLATAMMVPYTLPLESALSFTIRLLEWLPDVPEDIRWMKEQTGSICQYLVMRAKRKLGRHLPSRLPEQVELRRVQSLPSVPLSCAAYREALPGWMRNNLSLGDALAKWEECQRQLLLGLFCTNVAFPPEALRMRAPADPAPAPADPASPQHQLAGPAPLLSTPAPEARPVIGALGL
